Source: publication PMC4157081
Values joined by “and” are separate entries in the source; they are usually repeats but may differ in a detail not shown here. Identical values can stand only once.

Experiments:
Assay in all cases: cryo-EM structure
[1] = target: CUS-3 portal protein (gp1 by the name of the P22 homologue) (bacteriophage CUS-3)
[2] = target: CUS-3 tail needle protein (gp26 by the name of the P22 homologue) (bacteriophage CUS-3)
[3] = target: CUS-3 coat protein (CP, major capsid protein; gp5 by the name of the P22 homologue) (bacteriophage CUS-3)
[4] = target: CUS-3 tailspike protein (gp9 by the name of the P22 homologue) (bacteriophage CUS-3)

For “CUS-3 portal protein (gp1 by the name of the P22 homologue) (natural protein)”, the stoichiometry N [1] was 12.

In the case of “CUS-3 tail needle protein (gp26 by the name of the P22 homologue) (natural protein)”, the stoichiometry N [2] was 3.

In the case of “CUS-3 coat protein (CP, major capsid protein; gp5 by the name of the P22 homologue) (natural protein)”, the stoichiometry N [3] was 5 and 6.

“CUS-3 tailspike protein (gp9 by the name of the P22 homologue) (natural protein)” gave a stoichiometry N [4] of 3.
